In US20240199757A1 (UNIVERSITY OF CHICAGO, published 2024):

B1: 1789 Fab (Fab, V domains shown)
VH: EVQLVESGGGLVQPGGSLRLSCAASGFNVSYSSIHWVRQAPGKGLEWVASISSSSGYTYYADSVKGRFTISADTSKNTAYLQMNSLRAEDTAVYYCARNYWGWYPFYYFAFDYWGQGTLVTV
VL: DIQMTQSPSSLSASVGDRVTITCRASQSVSSAVAWYQQKPGKAPKLLIYSASSLYSGVPSRFSGSRSGTDFTLTISSLQPEDFATYYCQQGWDYPITFGQGTKVEIKR
B2: 1789 IgG (antibody, V domains shown)
VH: EVQLVESGGGLVQPGGSLRLSCAASGFNVSYSSIHWVRQAPGKGLEWVASISSSSGYTYYADSVKGRFTISADTSKNTAYLQMNSLRAEDTAVYYCARNYWGWYPFYYFAFDYWGQGTLVTVSS
VL: B1 VL

Tests used:
[1] = target: T1, human NT5E expressed on MDA-MB-231 cells (human, UniProt P21589 27-549); test: flow cytometry on MDA-MB-231 cells, 1 mM ATP
T1 construct: whole, on cells; also called NT5E-expressing MDA-MB-231 cells; CD73
T1 sequence (looked up): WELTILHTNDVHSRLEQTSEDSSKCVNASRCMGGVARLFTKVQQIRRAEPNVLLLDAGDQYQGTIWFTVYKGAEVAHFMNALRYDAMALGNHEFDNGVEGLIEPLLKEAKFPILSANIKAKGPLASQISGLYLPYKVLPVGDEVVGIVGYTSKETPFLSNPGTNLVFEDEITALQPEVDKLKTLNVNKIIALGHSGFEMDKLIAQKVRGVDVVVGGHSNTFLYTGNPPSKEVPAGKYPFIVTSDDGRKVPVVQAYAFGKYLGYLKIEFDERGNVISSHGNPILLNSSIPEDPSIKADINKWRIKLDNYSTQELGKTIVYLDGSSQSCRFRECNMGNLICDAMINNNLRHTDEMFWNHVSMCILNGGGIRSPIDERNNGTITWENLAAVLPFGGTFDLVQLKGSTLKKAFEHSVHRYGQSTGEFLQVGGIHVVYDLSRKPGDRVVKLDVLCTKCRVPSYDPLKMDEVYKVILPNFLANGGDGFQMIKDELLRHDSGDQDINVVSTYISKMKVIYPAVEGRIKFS
Method: Flow cytometry analysis of antibodies binding to human NT5E expressed on MDA-MB-231 cells in ATP-free condition (black) or in 1 mM ATP (red). Top panel: (left) 1780 Fab and (right) 1780 IgG titrations. […] Binding was measured at the indicated range of antibody concentrations and is expressed as mean±st. dev of median fluorescence intensity (MFI) of 1-2 replicates. Data were analyzed using OriginLab, and EC₅₀ values are shown next to the fitted curves.
(§1) Human MDA-MB-231 cells and murine 4T1 cells were grown to 90% confluency, detached with 5 mM EDTA for 15 min at 37° C. and then resuspended in 37° C. lx PBS (#10010031, Gibco) supplemented with 1% FBS and 1OpM ZnCl2. Separate working buffers (WB) of PBS and 1% FBS with or without fixed nucleotide concentrations were used throughout all washing steps to maintain constant condition. In 96-well plates (#3799, Costar), 0.2×10⁶ cells were added per well. The plates were spun at 500×g for 5 min and the supernatant was removed. Anti-NT5E antibodies were diluted to the desired concentration in 100 μL WB, added to the cells and the plates were incubated for 20 min at 37° C. Plates were spun and cells were washed twice with WB then spun a second time. Cells were stained with 100 μL of secondary antibody (Alexa Fluor 647 AffiniPure Goat Anti-Human IgG, F(ab′)2 fragment specific, #109-605-006, Jackson, 1:200) dilution and plates were incubated for 20 min at 37° C. Cells were washed twice with WB then fixed on ice with WB supplemented with 0.5% PFA. Fixing solution was removed by centrifugation and cells were resuspended in cold 1× PBS. Samples were analyzed by flow cytometry using CytoFLEX (Beckman Coulter) and mean fluorescence intensity (MFI) data was extracted using FlowJo software. Resulting binding data was plotted using OriginLab.

[2] = target: T2, hNT5EDF (substrate binding knock-out variant of hNT5E) (human); test: DSF thermal shift, 1.5-fold molar excess of Fab, no ATP (hNT5EDF alone 44° C.)
Method: (§2) With 1 mM ATP alone (red dashed line), the TM shifts from one transition at 49° C. to two transitions at TM 59° C. and 64° C. […] Thermal shift assays of substrate binding knock-out variants hNT5EDF (FIG. 2B) and hNT5EFF (FIG. 2C) show no change in thermal stability with the addition of ATP.
(§3) Thermal stability of samples was analyzed by differential scanning fluorimetry (DSF) using a real-time PCR instrument (Bio-Rad CFX384). Protein samples were mixed with 4× Sypro Orange at a final 4 μM concentration. For target/Fab complexes, 1.5-fold molar excess of Fab was used. All reactions were performed in triplicates in a 384-well plate. Thermal melting curves were monitored from 25° C. to 95° C. in steps of 0.5° C./30 s. Wavelengths of 490 and 575 nm were used for excitation and emission, respectively. The melting temperatures were inferred from the first derivative of the melting curves from the mean of triplicate runs using CFX software provided by the manufacturer.

[3] = target: T2, hNT5EDF (substrate binding knock-out …); test: DSF thermal shift, 1.5-fold molar excess of Fab, 1 mM ATP (hNT5EDF alone 46° C.)
Method: as §2, §3

[4] = target: T3, murine NT5E expressed on 4T1 cells (murine, UniProt Q61503 29-551); test: flow cytometry on 4T1 cells, 1 mM ATP
T3 construct: whole, on cells; also called mouse NT5E-expressing 4T1 cells
T3 sequence (looked up): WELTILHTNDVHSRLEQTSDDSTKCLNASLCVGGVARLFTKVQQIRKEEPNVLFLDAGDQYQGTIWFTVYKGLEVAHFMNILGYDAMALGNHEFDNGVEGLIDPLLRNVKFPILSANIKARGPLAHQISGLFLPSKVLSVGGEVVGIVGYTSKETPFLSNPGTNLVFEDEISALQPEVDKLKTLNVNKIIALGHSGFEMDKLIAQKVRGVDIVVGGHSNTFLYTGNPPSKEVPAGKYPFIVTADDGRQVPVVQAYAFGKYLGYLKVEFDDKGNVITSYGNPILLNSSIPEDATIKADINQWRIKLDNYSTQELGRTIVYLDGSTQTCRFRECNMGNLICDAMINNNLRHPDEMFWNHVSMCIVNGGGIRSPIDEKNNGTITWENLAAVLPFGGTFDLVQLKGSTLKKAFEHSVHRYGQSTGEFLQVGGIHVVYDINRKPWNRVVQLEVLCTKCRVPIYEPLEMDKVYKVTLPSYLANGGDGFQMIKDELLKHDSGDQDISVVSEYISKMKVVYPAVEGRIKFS
Method: as §1

Binder	EC50 [1] [nM]	TM of NT5E in the presence of the Fab [2] [° C.]	TM of NT5E in the presence of the Fab [3] [° C.]	EC50 [4] [nM]
B1	52	48	46	
B2				37.3
